Source: patent publication US20230090247A1, “MOLECULES TARGETING RAS PROTEIN” (AELIN THERAPEUTICS, priority 2020, published 2023)
Ends that are not written are not given here.

Tests used:
G12V mutant KRAS = target: T1, G12V mutant KRAS (Homo sapiens, UniProt P01116, G12V); assay: In vitro translation assay with streptavidin pull-down, KRAS G12V; type: binding; conditions: 10 μM biotinylated pept-in, Western blot
T1 construct: made in house; host or cells: cell-free: PURExpress In Vitro Protein Synthesis Kit (New England Biolabs), linear T7 DNA template
Text: FIG. 5 illustrates in vitro translation assay showing target selectivity of RAS-targeting molecules (‘pept-ins’) according to certain embodiments of the present invention. In vitro translation assay producing either wild-type or different mutant KRAS in the presence of biotinylated RAS-targeting pept-ins. Streptavidin pull-down was used to capture the biotinylated pept-ins from the translation reaction and pulled-down fraction was probed for KRAS using Western blot. The biotinylated version of pept-in 04-004-N001, i.e. 04-004-N011, which harbours an APR window sequence derived from a wild-type APR, would be predicted to target all RAS proteins independently from their mutation status. […] Using the biotinylated versions of the biologically active pept-ins harbouring an APR window containing the G12V mutant site (04-006-N007, 04-015-N026 and 04-033-N003), however, pull-down was only observed for the G12V mutant KRAS and, in the case of 04-015-N026, for G12C mutant KRAS.
In vitro translation assays were performed using the PURExpress® In Vitro Protein Synthesis Kit (New England Biolabs) according to the manufacturer's instructions. Briefly, linear DNA fragments containing T7 promotor and terminator sequences flanking the KRAS coding sequence were generated using PCR and purified using the MinElute PCR Purification Kit (Qiagen). 250 ng of linear DNA was subsequently used for the in vitro translation reaction, which was performed for 2 hours at 37° C. with shaking (1000 rpm). Indicated biotinylated pept-ins were mixed in the translation reactions from a 5 mM stock solution in 6M Urea to a final concentration of 10 μM. Upon completion of the translation reaction, biotinylated pept-ins were captured from the reaction mix using Streptavidin coated beads (Pierce) during 90 min at room temperature. Beads were next washed with TBS containing 0.1% Tween 20 and bound proteins were finally boiled off in 1×SDS loading dye (Bio-Rad) in TBS buffer. Proteins were resolved using Any kD 15-well Mini-PROTEAN gels (Bio-Rad) during SDS-PAGE and probed for KRAS after Western blotting using a mouse monoclonal KRAS-specific antibody (SC-30, Santa Cruz Biotechnology), which was detected with an HRP-coupled anti-mouse secondary antibody using chemiluminescence on a Bio-Rad Chemidoc MP imaging instrument.
To mimic this in vitro, we devised an in vitro translation setup producing either wild-type or mutant (G12V, G12C, G12D or G13D) KRAS in the presence of biotinylated RAS-targeting pept-ins. This allowed us to perform a streptavidin pull-down to capture the biotinylated pept-ins from the translation reaction and perform SDS-PAGE and Western blotting to probe the pulled-down fraction for the presence of KRAS. […]

KRAS wild-type = target: T2, KRAS wild-type (Homo sapiens, UniProt P01116); assay: In vitro translation assay with streptavidin pull-down, KRAS wild-type; type: binding; conditions: 10 μM biotinylated pept-in, Western blot
T2 construct: made in house; host or cells: cell-free: PURExpress In Vitro Protein Synthesis Kit (New England Biolabs), linear T7 DNA template
Text: (§1) FIG. 5 illustrates in vitro translation assay showing target selectivity of RAS-targeting molecules (‘pept-ins’) according to certain embodiments of the present invention. In vitro translation assay producing either wild-type or different mutant KRAS in the presence of biotinylated RAS-targeting pept-ins. Streptavidin pull-down was used to capture the biotinylated pept-ins from the translation reaction and pulled-down fraction was probed for KRAS using Western blot. The biotinylated version of pept-in 04-004-N001, i.e. 04-004-N011, which harbours an APR window sequence derived from a wild-type APR, would be predicted to target all RAS proteins independently from their mutation status. […]
(§2) In vitro translation assays were performed using the PURExpress® In Vitro Protein Synthesis Kit (New England Biolabs) according to the manufacturer's instructions. […] Proteins were resolved using Any kD 15-well Mini-PROTEAN gels (Bio-Rad) during SDS-PAGE and probed for KRAS after Western blotting using a mouse monoclonal KRAS-specific antibody (SC-30, Santa Cruz Biotechnology), which was detected with an HRP-coupled anti-mouse secondary antibody using chemiluminescence on a Bio-Rad Chemidoc MP imaging instrument. […]

G12C mutant KRAS = target: T3, G12C mutant KRAS (Homo sapiens, UniProt P01116, G12C); assay: In vitro translation assay with streptavidin pull-down, KRAS G12C; type: binding; conditions: 10 μM biotinylated pept-in, Western blot
T3 construct: made in house; host or cells: cell-free: PURExpress In Vitro Protein Synthesis Kit (New England Biolabs), linear T7 DNA template
Text: as §1, §2

KRAS G12D mutant = target: T4, KRAS G12D mutant (Homo sapiens, UniProt P01116, G12D); assay: In vitro translation assay with streptavidin pull-down, KRAS G12D; type: binding; conditions: 10 μM biotinylated pept-in, Western blot
T4 construct: made in house; host or cells: cell-free: PURExpress In Vitro Protein Synthesis Kit (New England Biolabs), linear T7 DNA template
Text: as §1, §2

KRAS G13D mutant = target: T5, KRAS G13D mutant (Homo sapiens, UniProt P01116, G13D); assay: In vitro translation assay with streptavidin pull-down, KRAS G13D; type: binding; conditions: 10 μM biotinylated pept-in, Western blot
T5 construct: made in house; host or cells: cell-free: PURExpress In Vitro Protein Synthesis Kit (New England Biolabs), linear T7 DNA template
Text: as §1, §2

wild-type KRAS = target: T6, wild-type KRAS (Homo sapiens, UniProt P01116); assay: Cellular co-immunoprecipitation in KRAS wild-type expressing RASless MEFs; type: cell-based; conditions: 25 μM biotinylated pept-in, 16 hours
T6 construct: host or cells: RASless mouse embryonic fibroblasts expressing a KRAS transgene
Protocol: (§3) FIG. 10 illustrates cellular co-immunoprecipitation assays showing target engagement by RAS-targeting molecules (‘pept-ins’) according to certain embodiments of the present invention. Cellular target engagement of biotinylated pept-ins was assessed using co-immunoprecipitation assay. KRAS wild-type or mutant G12V expressing RASless MEFs. […] The biotinylated versions of the G12V-selective pept-ins, however, show preferential binding to the G12V mutant KRAS protein.
(§4) Cellular co-immunoprecipitation assays were performed using either KRAS wild-type or mutant G12V expressing RASless MEFs (see elsewhere) or human NCI-H441 lung adenocarcinoma tumor cells and N-terminally biotinylated pept-ins. Cells were seeded at a density of 300,000 cells in a clear 6-well plate (Cellstar, Greiner). […] Next, cells were lysed with NP-40 lysis buffer (150 mM NaCl, 50 mM Tris HCl pH8, 1% IGEPAL (NP40), 1× Halt phosphatase/protease inhibitors (Thermo), 1 U/μl Universal Nuclease (Pierce)) and biotinylated pept-ins were captured with streptavidin-coated magnetic beads (Pierce) during 1 hours at room temperature. Beads were washed with NP40 lysis buffer at least 3 times, after which bound proteins were boiled off in 1×SDS loading dye (Bio-Rad) in NP40 lysis buffer. […]

mutant G12V KRAS = target: T7, mutant G12V KRAS (Homo sapiens, UniProt P01116, G12V); assay: Cellular co-immunoprecipitation in KRAS G12V expressing RASless MEFs; type: cell-based; conditions: 25 μM biotinylated pept-in, 16 hours
T7 construct: host or cells: RASless mouse embryonic fibroblasts expressing a KRAS G12V transgene
Protocol: as §3, §4

[1] = system: RASless MEFs expressing KRAS G12V; assay: RASless MEF spheroid efficacy, KRAS G12V expressing MEFs; type: cell-based, mouse; conditions: spheroids, 5 days of exposure, compared to KRAS WT and G12C MEFs
Protocol: (§5) FIG. 9 illustrates mutant-selective cellular efficacy using the RASless MEF panel. Graph showing mean±SD as well as individual assay IC50s from at least three independent experiments assessing the efficacy of the indicated RAS-target pept-ins on a panel of RASless MEFs, expressing either wild-type (WT), mutant G12V or G12C KRAS, or a V600E mutant BRAF in absence of endogenous K-, H-, and NRAS.
(§6) For the single-dose viability screen on spheroid cultures, 1000 cells were seeded per well in black Ultra-Low Attachment (ULA) round-bottom 96-well plates (Corning) in […] full growth medium. […] Technical duplicates were included for all experimental pept-in conditions 5 days after treatment viability was assessed using the CellTiter Glo 3D reagent (Promega) according to the manufacturer's instructions, with the following adaptation: 80 μL of reagent was added per well. Readout was performed on a Clariostar plate reader (BMG). […]
(§7) RAS mutant-selectivity on cellular efficacy was assessed using the isogenic RASless mouse embryonic fibroblast (MEF) panel. […] The panel assessed included the common clinical KRAS variants expressed as transgene (WT, G12V and G12C) and an additional cell line dependent on the expression of BRAF V600E for proliferation.
(§8) Efficacy of RAS-targeting pept-ins on MEFs growing as spheroids was assessed after 5 days of exposure. […]

[2] = system: RASless MEFs expressing KRAS WT; assay: RASless MEF spheroid efficacy, KRAS WT expressing MEFs; type: cell-based, mouse; conditions: spheroids, 5 days of exposure
Protocol: as §5, §6, §7, §8

[3] = system: RASless MEFs expressing KRAS G12C; assay: RASless MEF spheroid efficacy, KRAS G12C expressing MEFs; type: cell-based, mouse; conditions: spheroids, 5 days of exposure
Protocol: as §5, §6, §7, §8

[4] = system: SW620 xenograft of human KRAS G12V mutant colorectal cancer; assay: In vivo SW620 xenograft model; parameters: species or system Female NCr nu/nu mice
Protocol: FIG. 12 illustrates that RAS-targeting pept-ins reduce tumor growth in a xenograft model of KRAS G12V mutant cancer. […] Pept-ins were dosed 3 times per week by intratumoral injection at either 20 or 200 μg once the tumors reached 100-150 mm^3. Model response was monitored by a positive control group receiving Irinotecan at 100 mg/kg, once per week for 3 weeks. Group sizes were N=6 for the non-treated group, N=5 for the vehicle groups and N=8 for the pept-in and positive control groups. Graphs show box plots of tumor volumes at day 22 after treatment started.
Female NCr nu/nu mice (8 to 12 weeks) were inoculated with 1×10^6 SW620 tumor cells in 50% Matrigel subcutaneously in the hind flank. The cell Injection Volume was 0.1 mL/mouse. When tumors reached an average size of 100-150 mm^3 a pair match was performed, and treatment started. Group sizes were N=6 for the non-treated group, N=5 for the vehicle groups and N=8 for the pept-in and positive control groups. Tumor growth was monitored by caliper measurement twice per week. Model response was monitored by Irinotecan dosed once per week at 100 mg/kg intraperitoneally for 3 weeks.
To assess whether the RAS-targeting pept-ins are able to attenuate growth of KRAS G12V-driven tumors in vivo, a subcutaneous xenograft model of human KRAS G12V colorectal cancer (SW620) was used. Once the tumors reached 100-150 mm^3 in size, pept-ins were administered directly into the tumor mass by intratumoral injection three times per week during two weeks at two different doses (20 μg and 200 μg).

KRAS G12V = KRAS G12V (human, UniProt P01116-2 1-188, limits assumed); assay: cell-based or functional assay
[5] = system: HeLa cells overexpressing mCherry-tagged KRAS G12V; assay: Cellular fluorescent imaging in HeLa cells overexpressing mCherry-tagged KRAS G12V; type: cell-based, human; conditions: 75 min after treatment with the FITC-labeled pept-in
Protocol: FIG. 7 illustrates cellular co-localization between mCherry-labeled KRAS and FITC-labeled RAS-targeting molecules (‘pept-ins’) according to certain embodiments of the present invention.
Fluorescent cellular imaging was performed using HeLa cells that were transduced with lentiviral particles carrying a construct expressing KRAS G12V labeled N-terminally with mCherry. Cells were seeded in a black μClear® Cellstar® F-bottom 96-well plates (Greiner) in […] full growth medium. […] Next, cells were fixed, washed and counterstained with the nuclear dye NucBlue™ (containing Hoechst 33342). Images were captured on a Leica confocal microscope.
To complement the co-immunoprecipitation approach, we also used a cellular imaging approach to show target engagement. To this end, we generated a HeLa cell line overexpressing mCherry-tagged KRAS G12V and FITC-labelled versions of the RAS-targeting pept-ins.

04-033-N003: biotinylated version of a biologically active pept-in harbouring an APR window containing the G12V mutant site (KVVVGAVGVGKGSKVVVGAVGVGK; also: biotinylated, site not given here)
streptavidin pull-down of KRAS G12V (G12V mutant KRAS): notable pull-down

04-004-N011: biotinylated version of pept-in 04-004-N001 (KLSVFAIKGSKLSVFAIK; also: biotinylated, site not given here)
streptavidin pull-down of KRAS wild-type (KRAS wild-type): efficient pull-down | streptavidin pull-down of KRAS G12V (G12V mutant KRAS): efficient pull-down | streptavidin pull-down of KRAS G12C (G12C mutant KRAS): efficient pull-down | binding (pull-down) to KRAS G12D (KRAS G12D mutant): less efficient | binding (pull-down) to KRAS G13D (KRAS G13D mutant): less efficient | co-precipitation of wild-type KRAS (wild-type KRAS): precipitate both wild-type and mutant G12V KRAS well | co-precipitation of mutant G12V KRAS (mutant G12V KRAS): precipitate both wild-type and mutant G12V KRAS well

04-006-N007: biotinylated version of a biologically active pept-in harbouring an APR window containing the G12V mutant site (KVVVGAVKGSKVVVGAVK; also: biotinylated, site not given here)
streptavidin pull-down of KRAS G12V (G12V mutant KRAS): notable pull-down

04-015-N026: biotinylated version of a biologically active pept-in harbouring an APR window containing the G12V mutant site (KVVVGAVGKGSKVVVGAVGK; also: biotinylated, site not given here)
streptavidin pull-down of KRAS G12V (G12V mutant KRAS): notable pull-down | streptavidin pull-down of KRAS G12C (G12C mutant KRAS): notable pull-down

Ac-KLSVFAIKGSKLSVFAIK-NH2 [04-004-N001]
efficacy on MEFs expressing KRAS G12V [1]: notable increased efficacy | efficacy on MEFs expressing KRAS WT [2]: responded similarly as the BRAF V600E expressing RASless MEFs | efficacy on MEFs expressing KRAS G12C [3]: responded similarly as the BRAF V600E expressing RASless MEFs | average tumor volume at day 22 after treatment started ([4]; 20 μg intratumoral injection three times per week): only significant for the 200 μg dosing group | average tumor volume at day 22 after treatment started ([4]; 200 μg intratumoral injection three times per week): only significant for the 200 μg dosing group

SAH-SOS-1A (peptide)
IC50 on viability of adherent NCI-H441 cells after 4 days exposure (KRAS G12V): 15 µM

04-015-N032: FITC-labelled version of pept-in 04-015-N001 (KVVVGAVGKGSKVVVGAVGK; not fully specified (C-terminus); also: FITC-labelled, site not given here)
association with mCherry-labelled KRAS (inclusion-like perinuclear structures) [5]: associates with mCherry-labelled KRAS
